From the nanobody polyreactivity screen of Harvey et al. (2022)

Test: yeast display, Sf9 membrane polyspecificity reagent, FACS + sequencing; frameworks hold sequencing errors
In short: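 In a synthetic yeast display library (Saccharomyces cerevisiae BJ5465), nanobody expression was induced with galactose for 36–48 hours. FACS gates were set low and high (top ~1%) using anti-HA fluorescence for expression and streptavidin fluorescence for binding of the Sf9 membrane reagent. Each polyreactivity label is drawn from the gate of origin.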

| Sequence | polyreactivity (PSR sort gate) |
| --- | --- |
| QVQLVESGGGIVQAGGSLRLSCAASGRIIVNYAMGWYRQAPGKERELVAAISYSGGGTYYADSVKGRFTISRDNAKNTVYLHMNSLKPEDTAVYYCATVRRDDRYNYWGQGNQVTVSS | low polyreactivity |
| QVQLVESGGGLVQAGGSLRLSCAASVIIFQVYAMGWYRQAAGKERELVAAITRRGASTYYADSVKGRFTISRDNPKNTDYLQMNSLKPEETAVYYFNARAYYRLYKSKLGYWGQGTQVTVSS | high polyreactivity |
| QVQLVESAGGLFQEGGSLRVSCAASGSTFSYYDMGGYRQAPGKERELVAAINSTGITTYADSVKGRFTISRDNAKNTVYLQMNSLKPEDTAVYYCAAYHNYWGPYVWEEDYWGQGTQVTVSS | low polyreactivity |
| QVQLVESGGGLVQAGGSLRLSCAASGSTFVWNAMGWYRQAPGKERELVATITLSTGSTYYADSVKGRFTISRDNAKNTVYLQMNSLKPEDTAVYYCNTEIYVDIISDYGYWGQGTQVTVSS | low polyreactivity |
| QVQLVESGGGLVQAGGSLRLSCAASGGTFFGYAMGWYRQAPGKERELVAAISGSGGRTYYADSVKARFTISRDNAKNTVYLQMNSLKPEDTAVYYCAADATHETYYPFYYWGQGTQVTVSS | high polyreactivity |
| QVQLVESGGGLVQAGGSLRLICSASGRTFLYNSMGWYRQAPGKERELVAAIRWSGGTTYYADSVKGRFTISRDNAKYNVYLQMNSLKPEDTAVYYCAARWGPYYGGVRYGYWGQGTQVTVSS | high polyreactivity |
| QVQLVESGGGLVQAGGSLRLSCAASGSIFWRYTMGWYRQAPGKERELVAAISTRGGSTYYADSVKGRFTISRDNAKNTVYLQMNSLKPEDTAVYYCNAVEGSRLPYDYWGQGTQVTVSS | low polyreactivity |
| QVQLVDSGGGLVQAGGSLRLSCAASGIIFAYNAMGWYRQAPGKERELVAAITSGTSTHYADSVKGRFTISRDNAKNSVYLHINSLNPEDTAVYYCNADYFFEFDYWGQGTQVTVSS | low polyreactivity |
| QVQLVESGGGLVQAGGSLRLICAASGSTFNIKAMGWYRQAPGKERELVAAISSRGGSTYYADSVKGRFTISRDNAKNTVYLQMNSLKPEDTAVYYCALAAGIPQRRYYYWGQGTQVTVSS | high polyreactivity |
| QVQLVESGGGLVQAGGSLRLSCAASGFIFELYAMGWYRQAPGKERDLVAVISYDGGSTYYADSVKGRFTISRDNAKNTVYLQMNSLKPEDTAVYYCNTYAGLVSPSDLYDYWGQGTQVTVSS | low polyreactivity |
| QVQLVESGGGLVKAGGSLRLSCAASGITFHDYPMGWYRQAPGKERELVAAISSGGSTNYADSVKGRFTISRDNEKNTVYLQLNSLKPEDTAVYYCAAKYTDIVARLSLYYYWGQGTQVTVSS | low polyreactivity |
| QVQLVESGGGLVQAGGSLRLSCAASGFILPNYAMGWYRQAPGKERELVAASTYIGGSTYYADSVKGRFTISRDNAKHTVYLQMNSLKPEDTAVYYCAKYWLGYTKYDYWGQGTQVTVSS | low polyreactivity |
| QVQLVESGGGLVQAGGSLRLSCAASGGIFQWYAMGWYRQAPGKVREFVAAITRRGGSTYYAYSVKGRFTISRDNAKNTVYLQMNSLKPEDTAVYYCAARPWADFDYWGQGTQVTVSS | low polyreactivity |
| QVQLVESGGGLVHAGGSLRLSCAASGITFYDYDMGWYRQAPGKERELVATITSGGDTNYADSVKGRITISRDNAKNTVYLQMNSLKPEDTAVYYCAAGSFFRDSYARIYRWFYYWGQGTQVTVSS | low polyreactivity |
| QVQLVESGGGLVQAGGSLRLSCAASGFIFADYAMGWYRQAPGKERELVAAITSSGTRTYYADSVKGRFTISRDNAKNTVYLQMNSLKPEDTAVYYCAVRGVYYYHCAFDYWGQGTQVTVSS | high polyreactivity |
| QDQLVESGGGLDQEGGSLRLSCAASGIFSYEAMGWNRQAPGKERELVATISRRGSSTYYADSVKGRFTISRDNAKNTVYLQMNSLKPEDSAVYYCAAVRYISPAFLPASSYELGYWGQGSQVTVSS | low polyreactivity |
| QVQLVESGGGLVQAGGSLRLSCAASGSTYAAKTMGWYRQAPGKERELVAAITVRGGSTYYADSVKGRFTISRDNAKNTVYLQMNSLKPEDTAVYYCATRHPARRDYWGQGTQVTVSS | low polyreactivity |
| QVQLVESGGGLVQAGGSLRLSCAASGRTFVRYAMGWYRQATGNERELVAAISTSGGNTYYADSVKGRFSISRDNAKNTVYLQMNSLKPEDTAVYYCANDRGPNAKFDDWGQGTQVTVSS | low polyreactivity |
| QVQLVESGGGLVQAGGSLRLSWAASGSTFDYYAMGWYRQAPGKERELVAAIRWSDGSTYYADSVKGRFTISRDNAKNTVYLQMNSLKPEDTAVYYCAADALYWIGRMDYWGQGTQVTVSS | low polyreactivity |
| QVQLVESGGGLVQAGGSLRLSCAATGTTFGYYTMGWYRQAPGKERELDAAISWSGSSTYYADSVKGRFTISRDTAKNTVYLQMNSLKPEDTAVYYCNARGGARAWYFAYKYWGQGTQVTVSS | high polyreactivity |
| QVQLVESGGGLVQAGGILRLSCAASGSTFYQYAMGWYRQAPGKERELVAAITRGGRTYYADSVKGRFTISRDNAKNTVYLQMNSLKPEDTAVYYCAAGYRTAYRGSSYYYWGQGTQVTVSS | high polyreactivity |
| QVHLVESGGGLVQAGGRLRLSCAASGIIFRLYGMGWYRQAPGKEREFVATITWRGGRTNYADSVKGRFTIARDNAKNTVYLQMNSLKPEDTAVYYCAKVVRYARSNEYDSWGQGTQVTVSS | low polyreactivity |

| Sequence | polyreactivity (PSR sort gate) |
| --- | --- |
| QVQLVESGGGLVQAGGSLRLSCAASGSIYVYYAKGWYRQAPGKERYLVAAINTSGGSTYYADSVKGRFTISRDNAKNTVYLQMNSLKPEDTAVYYCAATPFASPRLHSFVVSYRYYYWGQGTQVTVSS | low polyreactivity |
| QVQLVESGGGLVQAGGSLRLSCAASGSIFPYYAMGWYRQAPGKERELVAAISSGGSTNYADSVKGRFTISRDNAKNTVYLQMNSLKPEDTAEYYCAARWSRIFRDRVKYWYDYWGQGTQVTVSS | low polyreactivity |
| QDQLVESGGGLVQAGGSLRLSCAASGFTFVINDMGWYRQAPGKERELVADITSGGDTYYADSVKGRFTISRDNAKNTDYLQMNSLKPEDTAVYYCAADIYPDWIYLLYGYWGQGTQVTVSS | low polyreactivity |
| QVQLVESGGGLVQAGGRLSLSCAASGSIFNQYAMGWHRQAPGKERELVAAISSDGGRTYYADSVKGRFTISRDNAKITVYLQMNSLKPEDTAVYYCNADFPAYGLECDVYWGQGTQVTVSS | low polyreactivity |
| QVQLVESGGGLVQAGGRLRLSCAASGNIFYPNAMGWYRQAPGKERELVAAISSSGGSTYYADSVKGRFTISRDNAKNTVYLQMNSLKPEDTAVYYCAKDRSYAYYWWPYPTGYDYWGQGTQVTVSS | low polyreactivity |
| QVQLVESGGGLDQAGGSLRLSCAASGSTFKPNVMGWYRQAPGEERELVAAISSRGGRTYYADSVKGRFTISRDNEKNNVYLQMNRLKPEDTAVYYCAALYLATGVDKAFDSWGQGTQVTVSS | high polyreactivity |
| QVQLVESGGGLVQAGGSLRLSCAASGSIFNGYDMGWYRQAPGKERELVAAISLSGDSTYYADSVKGRFTISRDYAKKTVYLQMNSLKPEDTAVYYCAAADYFRSYWGQGTQVTVSS | low polyreactivity |
| QVQLVESGGGLVQAGGSLRLSCAASGRTFGRNAMGWYRQAPGKERELVAAISSSGASTYYADSVKGRFTISRDNAKNTVYLQMNSLKPEDTAVYYCAKDVWGSRYAYDYWGQGTQVTVSS | low polyreactivity |
| QVQLVESGGGLVQAGGSLRVSCAASGSIFYYAMGWYRQAPGKERELVASIRSGGSTKFADSVKGRFTISRDNAKNTVYLQMNSLKPEDTAVYYCAARGVIRYTYKSTPYDYWGQGTQVTVSS | high polyreactivity |
| QVQLVESGGGLVQAGGSLRLSCAASGRTFSGYAMGWYRQAPGKERELVAAIDRGDGTNYADSVKGRYTISRDNAKNTVYLQMNSQIPEDTAVYYCAGDYSDGSTSLTYTGFVYWGQGTQVTVSS | low polyreactivity |
| QVQLVESGGGLVQAGGSLRLSCAASGSIFDRYALGWYRQAPGKERELVAAISTGGSTNYADSVKGRFTISRDNAKNTVYLQMNSLKPEDTAVYYCAAASPYHEYDYWGQGTQVTVSS | low polyreactivity |
| QVQLVESGVGLVQAGGSLRLSCAASGSIFTYNAMGLYRQAPGKERELVAAISRRGGTTYYADSVKGRITISRDNAMNTVYLKMNSLKPEDTAVYYCNVARHYAVESGFWGPGTQVTVSS | high polyreactivity |
| QVHLVESGGGLVQAGGSLRLSCAASGSIFEAYAMGWSRQAPGKERELVAVISWRGGLTYYPDSVKGRFTISRDNAKNTLYLQMNSLKPDDTAVYYCNKAYWWHQVGLPRNYEYWGQGTQVTVSS | low polyreactivity |
| QVQLVESGGGLVQAGGSLRLSCAASGLILVYYAMGWYRQAPGKERELVAAITPGGSTKYADSVKGRFTISRDNAKNTVYLQMNSLKPEDTAVYYCYALSGPYWYSVYQSHQDDYWGQGTQVTVSS | low polyreactivity |
| QVQLVESGGGLVQAGGSLRLSCAASGSIFNYYAMGCYRQAPGKERELVAAIETTGGSTYYADSVKGRFTNSRDNAKNTVYLQMNSLKPEDTAVYYCAATWGKPWYYEYDYWGQGTQVTVSS | low polyreactivity |
| QVQLVESGGGLDQAGGSLRLSCAASGSIFSGYAMGWYRQAPGKERELVAGISSRGGRTYYADSVKGRFTISRDNAKNTVYLQMNSLKPEDTAVYYCAARWSRSRTSDRYNYWGQGTQVTVSS | high polyreactivity |
| QVQLVESGGGLVQAGGSLRLSCAASGRTFAPYAMGWYRQAPGKERELVAAISWSGGSTYYADSVKGRFTISRDNAKNSVYLQMNSLKPEDTAVYYCAVVVDYDADRYWGYDYWGQGTQVTVSS | high polyreactivity |
| QDQLVESAGGIVQAGGRLRLSCAASGTLYINVMGWYRQSPGKERELVAAISSNGARTYYADSVKGRFTISRDNAKNTVYLQMNSLKPEDTAVYYCDASFYFYSLYGYWGQGTQVTVSS | high polyreactivity |
| QVQLVESGGGLVQAGGSLRLSCAASGYILWNAMGWYRQAPGKERELVAAIRFRGGSTSYADSVKGRFTISRDNAKNTVYLQMNSLKPEDTAVYYCNARWWVIRPYQRHDYWGQGTQVTVSS | low polyreactivity |
| QVQLVESGGGLVQAGGSLRLSCAASGLIFLWYVMGWYRQAPGKEREFVAAISWNGGGTYYADSVKGRFTISRDNAKNTVYLQMNSLKPDDTAVYYCAAQTYSNDYWGQGTQVTVSS | low polyreactivity |
| QVHLVESGGGLVQAGGSLRLSCAASGSTFGWYAMGWYRPSPGKERELVAAIRSNGGSTYYADSLKGRFTISRDNAKNTVYLQMNSLKPEDTAVFYCAARGSPSKHHWYDYWGQGTQVTVSS | low polyreactivity |
